5 molecules from patent US20200407452A1 (published 2020) can be followed below.

Bounds are passed on as bounds.

Experiment [1] concerns the target T1, human MET ECD (human, UniProt P08581 25-932).
T1 construct: range 1-932; recombinant; range as printed includes the signal peptide; also called hMET; hMET ECD
The experiment is described as follows: ELISA, MET ECD coated, mAb 0-40 nM, mouse IgG format.

Experiment [2] concerns the target T2, mouse MET ECD (mouse, UniProt P16056 25-931).
T2 construct: range 1-931; recombinant; range as printed includes the signal peptide; also called mMET; mMET ECD
The description is as above.

In experiment [3] the target is T3, native human MET on living cells (human, UniProt P08581 25-1390). The experiment is described as follows: cell-based or functional assay.
The target in experiment [4] is T4, native mouse MET on living cells (mouse, UniProt P16056 25-1379). The experiment is described as follows: cell-based or functional assay.
Experiment [5] has as its target T3, native human MET on living cells. The experiment is described as follows: cell-based or functional assay. This is another data set of the same source.
For experiment [6], the target named is T4, native mouse MET on living cells. In words: cell-based or functional assay. This is another data set of the same source.
The target of experiment [7] is human MET ECD mutant I (mutations 6, 7, 8) (human) (UniProt P08581). In words: ELISA, WT or mutant hMET ECD coated.
Experiment [8] concerns the target human MET ECD mutant J (mutations 6, 7) (human) (UniProt P08581). The experiment is described as follows: ELISA, WT or mutant hMET ECD coated.
The target of experiment [9] is T1, human MET ECD. In words: ELISA, MET ECD coated, mAb 0-20 nM. How it is done:
(§1) Production (by transient transfection of mammalian cells) and purification (by protein A affinity chromatography) of the resulting chimeric llama-human IgG1 molecules was outsourced to U-protein Express. Binding of chimeric mAbs to MET was determined by ELISA using hMET or mMET ECD in solid phase and increasing concentrations of antibodies (0-20 nM) in solution. […] Binding capacity (EMAX) varied from antibody to antibody, possibly due to partial epitope exposure in the immobilized antigen, but was similar in the human and mouse setting.

The target of experiment [10] is T2, mouse MET ECD. In words: ELISA, MET ECD coated, mAb 0-20 nM. How it is done:
as §1

In experiment [11] the target is T1, human MET ECD. The experiment is described as follows: ELISA, hMET ECD coated.
Experiment [12] has as its target T4, native mouse MET on living cells. The experiment is described as follows: FACS, MLP29 cells.
The target in experiment [13] is T3, native human MET on living cells. The experiment is described as follows: cell-based or functional assay. This is another data set of the same source.
In experiment [14] the target is T4, native mouse MET on living cells. The experiment is described as follows: cell-based or functional assay. This is another data set of the same source.
The target in experiment [15] is T3, native human MET on living cells. The experiment is described as follows: FACS, A549 cells.
Experiment [16] deals with human MET ECD mutant A (mutations 1, 2, 3) (human) (UniProt P08581). In words: ELISA, WT or mutant hMET ECD coated.
Experiment [17] deals with human MET ECD mutant H (mutations 2, 4) (human) (UniProt P08581). The experiment is described as follows: ELISA, WT or mutant hMET ECD coated.
Experiment [18] has as its target human MET ECD mutant D (mutations 1, 2) (human) (UniProt P08581). The experiment is described as follows: ELISA, WT or mutant hMET ECD coated.
Experiment [19] concerns the target human MET ECD mutant E (mutations 2, 3, 4) (human) (UniProt P08581). The experiment is described as follows: ELISA, WT or mutant hMET ECD coated.
For experiment [20], the target named is T2, mouse MET ECD. In words: ELISA, mMET ECD coated.
In experiment [21] the target is T1, human MET ECD. The experiment is described as follows: ELISA, WT or mutant hMET ECD coated. The procedure: Using human MET as a template, we mutagenized each of these residues in different permutations, generating a series of MET mutants that are fully human except for specific residues, which are llama. Next, we tested the affinity of selected SEMA-binding mAbs (71D6, 71C3, 71D4, 71A3, 71G2) and PSI-binding mAbs (76H10 and 71G3) for these MET mutants by ELISA. To this end, the various MET proteins were immobilized in solid phase (100 ng/well in a 96-well plate) and then exposed to increasing concentrations of antibodies (0-50 nM) solution. […] Wild-type human MET was used as positive control.
TABLE 24 The epitopes of MET responsible for agonistic antibody binding represent residues conserved among H. sapiens, M. musculus, R. norvegicus, M. fascicularis but not among the same species and L. glama. The relevance of residues conserved among human, mouse, rat, cynomolgus monkey but not llama MET for binding to agonistic mAbs was tested by ELISA. Wild-type (WT) or mutant (MT) human MET ECD was immobilized in solid phase and exposed to increasing concentrations of mAbs in solution. […] All binding values were normalized to the WT protein and are expressed as % binding (EMAX) compared to WT MET.

With 5D5 mouse anti-human MET antibody, in experiment [1], the EC50 worked out at 0.197 nM and the EMAX was found to be 3.16 OD450. Further, the EC50 in experiment [2] is over 40 nM.

B1: 76H10 chimeric llama-human IgG1 mAb (antibody, V domains shown)
VH: QLQLVESGGGLVQPGGSLRVSCTASGFTFNTYYMTWVRQAPGKGLEWVSDINSGGGTYYADSVKGRFTISRDNAKNTLYLQMNSLKPEDTALYYCVRVRIWPVGYDYWGQGTQVTVSS
VL: QAVVTQEPSLSVSPGGTVTLTCGLSSGSVTTSNYPGWFQQTPGQAPRTLIYNTNNRHSGVPSRFSGSISGNKAALTITGAQPEDEADYYCSLYTGSYTTVFGGGTHLTVL
notes: human IgG1 CH1-CH2-CH3 and human CL lambda
For the molecule B1, the “protection from staurosporine-induced apoptosis EC50, MCF10A cells” value in experiment [3] was over 32 nM. Also, in [3], the “protection from staurosporine-induced apoptosis EMAX, MCF10A cells” value stood at 22.8%. For the same molecule, in experiment [4], the “protection from staurosporine-induced apoptosis EC50, MLP29 cells” value is over 32 nM. Moreover, the “protection from staurosporine-induced apoptosis EMAX, MLP29 cells” value in experiment [4] was determined as 27.2%. The “phospho-MET ELISA EMAX, A549 cells” value in [5] was found to be 61.2 % HGF activity. The “phospho-MET ELISA EMAX, MLP29 cells” value in experiment [6] was 64.1 % HGF activity. The % binding (EMAX) vs WT MET ECD in experiment [7] is 100%; in [8], 89%. The EMAX was determined as 2.67 OD450 AU in [9] and 2.66 OD450 AU in experiment [10].

B2: 71D6 chimeric llama-human IgG1 mAb (antibody, V domains shown)
VH: ELQLVESGGGLVQPGGSLRLSCAASGFTFSSYGMSWVRQAPGKGLEWVSAINSYGGSTSYADSVKGRFTISRDNAKNTLYLQMNSLKPEDTAVYYCAKEVRADLSRYNDYESYDYWGQGTQVTVSS
VL: QPVLNQPSALSVTLGQTAKITCQGGSLGARYAHWYQQKPGQAPVLVIYDDDSRPSGIPERFSGSSSGGTATLTISGAQAEDEGDYYCQSADSSGSVFGGGTHLTVL
notes: human IgG1 CH1-CH2-CH3 and human CL lambda; also called 71D6 Human IgG1/lambda
Turning to B2, the half-maximal effective concentration (EC50) in [11] came out at 0.032 nM; in experiment [20] it was 0.036 nM. The “protection from staurosporine-induced apoptosis EC50, MCF10A cells” value in [3] was determined as 1.48 nM. In addition, the “protection from staurosporine-induced apoptosis EMAX, MCF10A cells” value in experiment [3] turned out to be 66.8%. Moreover, the “protection from staurosporine-induced apoptosis EC50, MLP29 cells” value in experiment [4] was 0.95 nM. Also, the “protection from staurosporine-induced apoptosis EMAX, MLP29 cells” value in [4] was determined as 68.3%. The EMAX in experiment [12] is 120 % CTR; in experiment [15], 115 % CTR; in experiment [9], 2.08 OD450 AU; in experiment [10] it was 2.01 OD450 AU. Moreover, in experiment [5], the “phospho-MET ELISA EMAX, A549 cells” value turned out to be 102 % HGF activity. In addition, the “phospho-MET ELISA EMAX, MLP29 cells” value in experiment [6] turned out to be 115 % HGF activity. For the same molecule, the “A549 MET act. (EMAX, % HGF)” value in experiment [13] came to 104 % HGF. Further, the “LOC br. m. (branch n.)” value in experiment [13] is 32.7 branches per spheroid. In addition, the “MLP29 MET act. (EMAX, % HGF)” value in [14] was determined as 110 % HGF. For the same molecule, in [14], the “MLP29 br. m. (branch n.)” value is 41.3 branches per spheroid. For the same molecule, the % binding (EMAX) vs WT MET ECD is 103% in [16]; 38.6% in [17]; 128% in experiment [18]; 43.6% in [19]; 100% in experiment [21].

B3: 71D6 llama-mouse chimeric mAb (mouse IgG1/lambda) (antibody, V domains shown)
VH: B2 VH
VL: QPVLNQPSALSVTLGQTAKITCQGGSLGARYAHWYQQKPGQAPVLVIYDDDSRPSGIPERFSGSSSGGTATLTISGAQAEDEGDYYCQSADSSGSVFGGGTHLTVLG
notes: also called 71D6 Mouse IgG1/lambda
B3: in experiment [13], the “LOC br. m. (branch n.)” value is 30.4 branches per spheroid. Further, the “MLP29 br. m. (branch n.)” value in experiment [14] is 39.5 branches per spheroid. For the same molecule, in experiment [20], the EC50 is 0.036 nM.

B4: 71G3 chimeric llama-human IgG1 mAb (antibody, V domains shown)
VH: QVQLVESGGGLVQPGGSLRVSCAASGFTFSTYYMSWVRQAPGKGLEWVSDIRTDGGTYYADSVKGRFTMSRDNAKNTLYLQMNSLKPEDTALYYCARTRIFPSGYDYWGQGTQVTVSS
VL: QAVVTQEPSLSVSPGGTVTLTCGLSSGSVTTSNYPGWFQQTPGQAPRTLIYNTNSRHSGVPSRFSGSISGNKAALTIMGAQPEDEADYYCSLYPGSTTVFGGGTHLTVL
notes: human IgG1 CH1-CH2-CH3 and human CL lambda; also called 71G3 Human IgG1/lambda
Regarding B4, in experiment [3], the “protection from staurosporine-induced apoptosis EC50, MCF10A cells” value was determined as 5.04 nM and the “protection from staurosporine-induced apoptosis EMAX, MCF10A cells” value worked out at 65.2%. Besides, in experiment [4], the “protection from staurosporine-induced apoptosis EC50, MLP29 cells” value came to 4.85 nM and the “protection from staurosporine-induced apoptosis EMAX, MLP29 cells” value is 62.3%. Moreover, the EMAX in experiment [12] was found to be 112 % CTR. For the same molecule, the “phospho-MET ELISA EMAX, A549 cells” value in experiment [5] turned out to be 95.7 % HGF activity. The “phospho-MET ELISA EMAX, MLP29 cells” value in [6] was determined as 97.8 % HGF activity. Also, in experiment [13], the “A549 MET act. (EMAX, % HGF)” value stood at 94.3 % HGF and the “LOC br. m. (branch n.)” value came to 22.3 branches per spheroid. In addition, in [14], the “MLP29 MET act. (EMAX, % HGF)” value was 96.8 % HGF and the “MLP29 br. m. (branch n.)” value was determined as 29.3 branches per spheroid. This molecule also yielded an EMAX in [15] of 110 % CTR. The molecule further showed a % binding (EMAX) vs WT MET ECD in [7] of 100%. In experiment [8], this molecule showed a % binding (EMAX) vs WT MET ECD of 91.2%. Further, the EMAX in experiment [9] came out at 2.83 OD450 AU. Also, the EMAX in [10] was determined as 2.98 OD450 AU.
